Experimental data as given in patent JP2003510672A.

Tests used:
[1] = molecular target: ヒト組換え型CD4 (RepliGen, USA) (human) (UniProt P01730); test: SPR (BIACORE 2000, 25 C), mimetic immobilised on B1 chip, soluble CD4 injected at 16-330 nM
[2] = molecular target: ヒト組換え型CD4 (RepliGen, USA) (human) (UniProt P01730); test: SPR (BIACORE 2000, 25 C), KD calculated as kd/ka; mimetic immobilised, soluble CD4 injected

## 疑似体 Mk3Tyr-long1SH (cyclic peptide mimetic of the ST40 paratope; MK3Tyr with the Ile between Tyr140 and Asn144 replaced by Lys extended with 3-mercaptopropionic acid)
[1]
  koff: 0.000264 s⁻¹
  kon: 82600 M⁻¹ s⁻¹
[2]
  Kd: 3.2 nM
